How the values were obtained:
immunoblot, HEK293T = details: glycan lost; control: FOXK1 WT, PFOS-treated
[1] = PES1 IP, HA-Ub blot, MG132, HEK293T; details: glycan lost; control: FOXK1 WT, PFOS-treated
[2] = cycloheximide chase, PES1 immunoblot, HEK293T; details: glycan lost; control: FOXK1 WT

B1: forkhead box k1 (FOXK1): FOXK1 T573A (protein)
parent chain: MAEVGEDSGARALLALRSAPCSPVLCAAAAAAAFPATTSPPPPAQPPPGPPALPAEPGPGPVPSTVATATTTAPALVAAAAASVRQSPGPALARLEGREFEFLMRQPSVTIGRNSSQGSVDLSMGLSSFISRRHLQLSFQEPHFYLRCLGKNGVFVDGAFQRRGAPALQLPQQCTFRFPSTAIKIQFTSLYHKEEAPASPLRPLYPQISPLKIHIPEPDLRSLVSPIPSPTGTISVPNSCPASPRGAGSSSYRFVQNVTSDLQLAAEFAAKAASEQQADASGGDSPKDESKPPYSYAQLIVQAISSAQDRQLTLSGIYAHITKHYPYYRTADKGWQNSIRHNLSLNRYFIKVPRSQEEPGKGSFWRIDPASEAKLVEQAFRKRRQRGVSCFRTPFGPLSSRSAPASPTHPGLMSPRSSGLQTPECLSREGSPIPHDPDLGSKLASVPEYRYSQSAPGSPVSAQPVIMAVPPRPSNLVAKPVAYMPASIVTSQQPSGHAIHVVQQAPTVTMVRVVTTSANSANGYILASQGSTGTSHDTAGTAVLDLGNEARGLEEKPTIAFATIPAASRVIQTVASQMAPGVPGHTVTILQPATPVTIGQHHLPVRAVTQNGKHAVPTNSLTGNAYALSSPLQLLAAQASSSTPVVITRVCEVGPEEPAAAVSVAANAAPTPAASTTTSASSSGEPEVKRSRVEEPGGTATTQPTAMAATGPQGPGTGE
other: PES1 protein level (immunoblot, HEK293T): decreases | other: PES1 ubiquitination [1]: increases | other: PES1 degradation [2]: increases
